Reference: publication PMC4457826 (PLoS Pathogens, 2015)

What was measured:
[1] = test system: USP7-CTD mutant D762R/D764R; test: GST pull-down, USP7-CTD D762R/D764R; format: binding, human
Description: (§1) Fragments representing USP7-CTD Ubl domains were prepared using ligation independent cloning with In-Fusion (Clontech) in p15TV-L. The boundaries of the Ubl domain constructs are Ubl12 (535–776), Ubl123 (535–889), Ubl345 (776–1102), Ubl45 (886–1102) and USP7-CTD (535–1102). Plasmids expressing USP7-NTD, USP7, and myc-USP7 WT (pCANmycUSP7) were described previously. USP7 mutants E759A, D762A, D764A and D762A/D764A in Ubl123 were synthesized (Genscript) and inserted into the pET15b plasmid. USP7 mutants E759A, D762A, D764A, D762A/D764A and D762R/D764R in USP7-CTD were prepared by ACGT Corporation. The D762R/D764R mutant was then sub-cloned into wild-type pCANmycUSP7 for co-IP assays. The mammalian ICP0 expression construct pCI-110 ICP0 was obtained from Roger Everett.
(§2) The ICP0, GMPS and UHRF1 WT and mutant peptides were cloned into pGEX-2TK and expressed in E. coli BL21(DE3). GST-ICP0 594–775 was obtained from Roger Everett. The GST-ICP0 or GST-GMPS or GST-UHRF1 or GST-ICP0 594–775 cell pellets from 500 ml of LB broth were re-suspended with PBS and lysed using sonication. The cleared lysates were applied to 500 μl of equilibrated glutathione-sepharose beads and incubated with rocking for 60 min at 4°C. Unbound proteins were removed by washing with PBS. Bound proteins were eluted with 50 mM Tris pH 8.0 and 100 mM NaCL containing 30 mM reduced glutathione. […]

USP7-CTD = target: T1, USP7-CTD (Homo sapiens, UniProt Q93009); test: GST pull-down, USP7-CTD; format: binding; conditions: GST pull-down; GST-ICP0 594–775, GST-GMPS and GST-UHRF1 peptides and mutants; Fig 3H, 4C-F
T1 construct: USP7-CTD (535–1102); His tag (inferred from nickel-NTA purification; vector p15TV-L); made in house; host or cells: E. coli BL21(DE3)mgk
Description: as §1, §2

T1 sequence (Q93009 535-1102): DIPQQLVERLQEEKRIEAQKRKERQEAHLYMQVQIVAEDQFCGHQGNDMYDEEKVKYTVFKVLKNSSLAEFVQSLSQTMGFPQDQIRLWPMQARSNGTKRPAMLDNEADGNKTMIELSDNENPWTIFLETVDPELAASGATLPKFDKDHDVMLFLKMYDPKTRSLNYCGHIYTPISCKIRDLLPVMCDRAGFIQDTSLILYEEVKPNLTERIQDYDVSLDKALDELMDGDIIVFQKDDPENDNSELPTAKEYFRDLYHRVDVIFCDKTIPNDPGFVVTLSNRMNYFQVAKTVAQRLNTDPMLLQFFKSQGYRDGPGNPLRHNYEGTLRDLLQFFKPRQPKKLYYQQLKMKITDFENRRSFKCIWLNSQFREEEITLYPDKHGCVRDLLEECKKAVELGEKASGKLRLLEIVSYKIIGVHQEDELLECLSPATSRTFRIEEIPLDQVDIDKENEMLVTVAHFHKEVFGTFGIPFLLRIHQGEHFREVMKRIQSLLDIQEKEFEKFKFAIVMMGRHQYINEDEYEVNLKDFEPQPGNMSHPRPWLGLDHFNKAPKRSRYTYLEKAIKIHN

B1: GST-ICP0 594–775: longer ICP0 peptide corresponding to residues 594–775 (protein)
chain: AVGALGGRQEETSLGPRAASGPRGPRKCARKTRHAETSGAVPAGGLTRYLPISGVSSVVALSPYVNKTITGDCLPILDMETGNIGAYVVLVDQTGNMATRLRAAVPGWSRRTLLPETAGNHVMPPEYPTAPASEWNSLWMTPVGNMLFDQGTLVGALDFRSLRSRHPWSGEQGASTRDEGKQ
modifications: left off: GST, end not stated, kept
[1]
  Binding to USP7-CTD mutant D762R/D764R: not D762R/D764R USP7-CTD
USP7-CTD
  Binding to WT USP7-CTD: interaction was observed
